We go through two molecules from publication PMC9800568, “The permanently chaperone-active small heat shock protein Hsp17 from Caenorhabditis elegans exhibits topological separation of its N-terminal regions” (The Journal of Biological Chemistry, 2022).

Series [1] addresses Hsp17 (small heat shock protein Hsp17 from Caenorhabditis elegans) (C. elegans) (UniProt Q20660). In words: cryo-EM structure; 2.5 mg/ml Hsp17, Titan Krios 300 kV, tetrahedral symmetry, pseudo-atomic model fitted.
The target is the same in series [2]. In words: SEC; SEC-HPLC, Superdex 200 Increase 10/300 GL, PBS, 0.5 ml/min, room temperature, 50 μl of 50 μM protein. Background: Size exclusion chromatography separates by hydrodynamic size, large species first.
Series [3] deals with the molecule itself. The description is as above.

For the molecule “Hsp17 (small heat shock protein Hsp17 from Caenorhabditis elegans) (from UniProt Q20660 1-149) (natural protein)”, the stoichiometry N in series [1] and in series [2] was 24 in each case.

B1: Hsp17ΔNTR (Hsp17 variant lacking the N-terminal region) (domain or fragment, C. elegans)
chain: MGDAIDVVNNDQEYNVSVDVSQFEPEELKVNIVDNQLIIEGKHNEKTDKYGQVERHFVRKYNLPTGVRPEQIKSELSNNGVLTVKYEKNQEQQPKSIPITIVPKRN
notes: Hsp17, C. elegans, from aa position 45 to the C-terminus (ACD and CTR); The full-length protein is modelled to residue 148; also called NTR-truncated variant; truncation variant; source: E. coli BL21 (DE3), tag-free, purified (Sepharose Q FF, Superdex 75 pg)
For B1, the “stoichiometry N” value in series [3] came to 3.5 monomers.

For orientation: stoichiometry N means a count of units in the complex or per binding partner.
